Reference: patent US20040018515

Assays:
[1] = tested on: Erk2
[2] = tested on: p386

Row | Substance | initial rate of fluorescence increase (535 nm) of the ADP NASM FRET assay, reporting ADP yield from ATP hydrolysis [1] | initial rate of fluorescence increase (535 nm) of the ADP NASM FRET assay, reporting ADP yield from ATP hydrolysis [2]
1 | Mek1 | substantially enhanced fluorescence was observed (Table 17, shaded cells; 150-300 RFU/min) | 
2 | Mek 6 |  | substantially enhanced fluorescence was observed (Table 17, shaded cells; 150-300 RFU/min)
